B1: AtICS2 (His6-AtICS2, ICS2) (Arabidopsis thaliana) (protein)
chain: MNGCEADHKAPLGTVETRTLSTVPSPAAATERLITAVSDLKSQPPPFSSGIVRLQVPIEQKIGAIDWLHAQNEILPRSFFSRRSDSGRPDLLQDFSSDNGSSDHNPVSVAGIGSAVFFRDLDPFSHDDWRSIRRFLSSKSPLIRAYGGLRFDPTGKIAVEWEHFGSFYFTVPQVEFDEFGGSSMLAATVAWDNELSWTLENAIEALQETMLQVSSVIMRLRRESLGVIVVSKNHVPSEGAYYPAVNNALEIIKDKHSPLSKVVLARSSRIITDTDIDPIAWLARLQCEGQDAYQFCLQPPGAPAFIGNTPERLFHRKHLGVCSEALAATRPRGDSKVREMEIERDLLTSPKDDLEFSIVRENIREKLKTICDRVVVKPHKSVRKLARVQHLYSQLAGQLKREDDEFNILTALHPTPAVCGCPVEEARLLIKQIESFDRGMYAGPIGFFGGGESEFSVGIRSALVEKGLGALIYAGTGIVSGSNPSSEWNELELKISQFTKSLEHESALQPIN
notes: transit peptide removed (forward primer encodes MNGCEA start), N-terminal His6 tag from pET-28a TEV, no tag cleavage described; E. coli Rosetta DE3 pLysS; ~60 kDa; monomer
B2: AtICS1 (His6-AtICS1, ICS1) (Arabidopsis thaliana) (protein)
chain: MNGCDGDFKTPLGTVETRTMTAVLSPAAATERLISAVSELKSQPPSFSSGVVRLQVPIDQQIGAIDWLQAQNEIQPRCFFSRRSDVGRPDLLLDLANENGNGNGNGTVSSDRNLVSVAGIGSAVFFRDLDPFSHDDWRSIRRFLSSTSPLIRAYGGMRFDPNGKIAVEWEPFGAFYFSVPQVEFNEFGGSSMLAATIAWDDELSWTLENAIEALQETMLQVSSVVMKLRNRSLGVSVLSKNHVPTKGAYFPAVEKALEMINQKSSPLNKVVLARNSRIITDTDIDPIAWLAQLQREGHDAYQFCLQPPGAPAFIGNTPERLFQRTQLGVCSEALAATRPRAASSARDMEIERDLLTSPKDDLEFSIVRENIREKLNGICDRVVVKPQKTVRKLARVQHLYSQLAGRLTKEDDEYKILAALHPTPAVCGLPAEEARLLIKEIESFDRGMYAGPIGFFGGEESEFAVGIRSALVEKGLGALIYAGTGIVAGSDPSSEWNELDLKISQFTKSIEYEATTSLQAIN
notes: transit peptide removed (forward primer encodes MNGCDG start), N-terminal His6 tag from pET-28a TEV, no tag cleavage described; E. coli Rosetta DE3 pLysS; ~60 kDa; monomer

Assays:
[1] = substrate: C=C(O[C@@H]1C=C(C(=O)O)C=C[C@H]1O)C(=O)O; assay: coupled fluorimetric assay with PchB (salicylate formation); assay type: biochemical, Arabidopsis thaliana; details: 100 mM Tris-HCl pH 7.7, 10 mM MgCl2, 30°C, 1 µM His6-PchB, 100 nM enzyme
Text: coupled fluorimetric assay with PchB (salicylate formation) on AtICS2 (His6-AtICS2, ICS2)

[2] = substrate: C=C(O[C@@H]1C=C(C(=O)O)C=C[C@H]1O)C(=O)O; assay: as above; assay type: biochemical, Arabidopsis thaliana; details: 100 mM Tris-HCl pH 7.7, 10 mM MgCl2, 30°C, 1 µM His6-PchB, 100 nM enzyme; remark: listed apart in the source
Text: coupled fluorimetric assay with PchB (salicylate formation) on AtICS1 (His6-AtICS1, ICS1)

| Protein | Km [1] [µM] | kcat [1] [s⁻¹] | kcat/Km [1] [M⁻¹ s⁻¹] | Km [2] [µM] | kcat [2] [s⁻¹] | kcat/Km [2] [M⁻¹ s⁻¹] |
| --- | --- | --- | --- | --- | --- | --- |
| B1 | 28.8 ± 6.9 | 0.283 ± 0.02 | 9830 ± 1030 |  |  |  |
| B2 |  |  |  | 34.3 ± 3.7 | 0.635 ± 0.025 | 18500 ± 217 |
